Data published in PMC9270183 (The Journal of Experimental Medicine, 2022).

Target: T1, 417N/484K/501Y RBD mutant (SARS-CoV-2, Wuhan-Hu-1 RBD backbone …, 417N | 484K | 501Y)
T1 construct: also called RBD KEN
Assay: BLI
Settings: both partners purified

B1: V027 (antibody, V domains shown)
VH: not shown
VL: NFMLTQPHSVSESPGKTVTISCTRSSGSIASNYVQWYQQRPGSAPTTVIYEDNQRPSGVPDRFSGSIDSSSNSASLTISGLKTEDEADYYCQSYDSSNHRVFGGGTKLTVL
notes: IgG; donor BRA14; source: recombinant monoclonal IgG, produced and purified as previously described
Q: B1 was tested. Which Kd did it give?
A: 37.3 nM

B2: V028 (antibody, V domains shown)
VH: QVQLVESGGGVVQPGRSLRLSCAASGFTFSSYGMHWVRQAPGKGLEWVAVVSFDGSDKYYADSVKGRFTISRDNSKNTLYLQMNSLRAEDTALYYCAKGGYSYAYPRYYFDYWGQGTLVTVSS
VL: DIQMTQSPSSLSASVGDRVTITCQASQDISNYLNWYQQKPGKAPKLLIYDASNLETGVPSRFSGSGSGTDFTFTISSLQPEDIATYYCQQHDNLPITFGQGTRLEIK
notes: as for B1
Q: B2 was tested. Which Kd did it give?
A: 44.6 nM

B3: V031 (antibody, V domains shown)
VH: QVQLVESGGGVVQPGRSLRLSCAASGFTFSSYGMHWVRQAPGKGLEWVAVISYDGSNKYYADSVKGRFAFSRDNSKNTLYLQMNSLRAEDTAVYYCAKGGYSYAYPRYYFDYWGQGTLVTVSS
VL: DIQMTQSPSSLSASVGDRVTITCQASQDISNYLNWYQQKPGKAPKLLIYDASNLETGVPSRFSGSGSGTDFTFTISSLQPEDIATYYCQQHDNLPITFGQGTRLEIK
notes: as for B1
Q: B3 was tested. Which Kd did it give?
A: 14.5 nM
